Results: patent publication US20130079246A1 (ADDEX PHARMA SA, priority 2010, published 2013)

Tests used:
[1] = biological target: T1, chimeric TNFR1-PDGFR receptor (full length human TNFR1 fused to cytoplasmic domain of mouse PDGFR) (Homo sapiens, UniProt P19438); experiment: Ca2+-dependent aequorin luminescence in HEK293T Aequorin cells expressing the chimeric receptor (HTS setting); type: cell-based
T1 construct: 1, 2; full length; cytoplasmic domain (cp); expressed in transfected cells; host or cells: HEK293T cells stably expressing apoaequorin
T1 sequence (P19438 with tags, fused parts or gaps): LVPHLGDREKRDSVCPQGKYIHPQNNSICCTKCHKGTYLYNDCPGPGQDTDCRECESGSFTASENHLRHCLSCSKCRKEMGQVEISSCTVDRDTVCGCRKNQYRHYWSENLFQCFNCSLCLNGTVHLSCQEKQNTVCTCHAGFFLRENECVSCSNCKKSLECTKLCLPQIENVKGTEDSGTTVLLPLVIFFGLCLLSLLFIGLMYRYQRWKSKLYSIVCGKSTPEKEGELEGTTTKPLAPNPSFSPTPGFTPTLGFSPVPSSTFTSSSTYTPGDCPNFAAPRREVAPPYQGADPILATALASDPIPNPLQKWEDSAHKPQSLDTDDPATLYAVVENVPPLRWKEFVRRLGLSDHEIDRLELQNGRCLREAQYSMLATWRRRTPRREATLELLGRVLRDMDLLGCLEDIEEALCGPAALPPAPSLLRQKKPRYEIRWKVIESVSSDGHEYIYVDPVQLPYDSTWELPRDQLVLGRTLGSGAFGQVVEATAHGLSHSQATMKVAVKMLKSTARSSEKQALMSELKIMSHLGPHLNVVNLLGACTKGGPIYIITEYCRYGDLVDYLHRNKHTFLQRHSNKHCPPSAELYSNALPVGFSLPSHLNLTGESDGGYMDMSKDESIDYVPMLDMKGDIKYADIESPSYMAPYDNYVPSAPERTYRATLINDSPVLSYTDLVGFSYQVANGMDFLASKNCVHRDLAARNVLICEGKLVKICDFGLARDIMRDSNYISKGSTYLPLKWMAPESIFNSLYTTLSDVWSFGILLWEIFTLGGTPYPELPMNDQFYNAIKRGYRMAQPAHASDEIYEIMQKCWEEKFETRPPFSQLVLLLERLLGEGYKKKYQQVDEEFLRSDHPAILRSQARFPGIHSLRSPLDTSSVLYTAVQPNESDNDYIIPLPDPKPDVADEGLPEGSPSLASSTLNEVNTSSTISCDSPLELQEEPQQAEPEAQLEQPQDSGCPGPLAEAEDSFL
Description: HEK293T stably expressing Apoaequorin were generated using standard cloning techniques. The HEK293T cells expressing Apoaequorin (“Aequorin cells”) were then further transfected as described in Examples 1-3 so as to express the chimeric receptors 1-3 as listed in Table 3.
In particular, the HEK293T Apoaequorin cells were transfected with pcDNA3.1 hygro TNFR1-fl-PDGFR-cd vector as prepared in Example 1 using Optifect™ Transfection Reagent (Invitrogen), according to the manufacturer's protocol.
HEK293T cells expressing Apoaequorin and the chimeric receptor (Example 4) were plated in 384-well plates at a concentration of 12500 cells per well in a final volume of 50 μl. […] A FDSS7000 reader from Hamamatsu (Japan) was used to examine intracellular calcium levels. […] The instrument features include detection with a camera of fluorescence or luminescence and automatically converts fluorescence or luminescence signals into numeric data. This digital data is then used to determine the concentration of calcium inside the analyzed cells. The information is automatically analyzed in terms of a positive, negative or null effect of each test compound being examined. This system allowed differences between untreated and treated cells to be measured, for example by measuring the calcium flux in cells. […]

[2] = biological target: chimeric receptor: full length human TNFR1 fused to the cytoplasmic tyrosine kinase domain of mouse PDGFR (human TNFR1; mouse PDGFR); experiment: cell-based or functional assay
Chain of chimeric receptor: full length human TNFR1 fused to the cytoplasmic tyrosine kinase domain of mouse PDGFR (human TNFR1; mouse PDGFR) (chain, as listed by the source mutant limits assumed): as the sequence (P19438 with tags, fused parts or gaps) above

Chain of TNF (ligand) (P01375 77-233): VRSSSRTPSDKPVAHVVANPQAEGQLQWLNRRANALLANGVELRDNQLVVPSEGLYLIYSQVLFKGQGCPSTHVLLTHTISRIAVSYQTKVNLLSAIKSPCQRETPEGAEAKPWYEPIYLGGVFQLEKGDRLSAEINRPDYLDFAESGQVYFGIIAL

Compound | Effect on TNF-dependent intracellular calcium increase ([1]; 1 μM inhibitor, 3 ng/ml TNF, FIG. 5b) | Inhibitory efficacy, dose response compared with cells expressing full-length PDGFR ([1]; inhibitor 3 μM to 0.45 nM, cells exposed to TNF, FIG. 6) | EC50, Ca2+-dependent aequorin luminescence, AUC over 10 minutes [2] [ng/mL] | EC50, Ca2+-dependent aequorin luminescence, Max-Min [2] [ng/mL] | EC80, Ca2+-dependent aequorin luminescence, AUC over 10 minutes [2] [ng/mL] | EC80, Ca2+-dependent aequorin luminescence, Max-Min [2] [ng/mL]
COc1cc2ncnc(N3CCN(C(=O)Nc4ccc(Oc5ccccc5)cc4)CC3)c2cc1OC [PDGFR Tyrosine Kinase Inhibitor III, 4-(6,7-Dimethoxy-4-quinazolinyl)-N-(4-phenoxyphenyl)-1-piperazinecarboxamide] | prevented the detection of intracellular calcium increase | equal inhibitory efficacy |  |  |  | 
TNF (ligand) |  |  | 1.27 | 1.06 | 2.9 | 3
